Experiment: yeast display, Sf9 membrane polyspecificity reagent, FACS + sequencing; frameworks hold sequencing errors
In short: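 A nanobody's polyreactivity label depends on the gate it was sorted from. Yeast display cells were stained with 10% biotinylated, detergent-solubilized Sf9 membrane reagent for 1 hour at 4 °C, enriched on streptavidin microbeads and sorted by FACS. The low and high (top ~1%) gates were set on anti-HA fluorescence for expression and streptavidin fluorescence for reagent binding.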

QVQLVESGGGLVQAGGSLRLSCAASGCIFAHNAMGWYRQAPGKERELVAASTYYADSVKGRFTISRDNAKNTVYLQMNSLKPEDTAVYYCAKRTRFSPGHDYWGQGTQVTVSS
polyreactivity (PSR sort gate): high polyreactivity

QVQLVESGGGLVQAGGSLRLSCAASGCIFASYPMGWYRPAPGTERELVAAISRAGSTYYADSVKGRFTISRDNAKNTDYLQMNSLKPEDTAVYYCNADFNWGYNYWGQGTQVTGSS
polyreactivity (PSR sort gate): high polyreactivity

QVQLVESGGGLVQAGGSLRLSCAASGCIFVSHAMGWYRQAPGKERELVAAITSGDNTKYADSVKGRFTISRDNAKNTVYLQMNSLKPEDTAVYYCAVTYRYQGAGYYWGQGTQVTVSS
polyreactivity (PSR sort gate): low polyreactivity

QVQLVESGGGLVQAGGSLRLSCAASGCIGRRYAMGWYRQAPGKERELVAAITSSGGGTYYADSVKGRFTISRDNAKNTVYFQINILTPEDTAVYYCAARVYGSHFYYRTRPYDYWGQGTQVTVSS
polyreactivity (PSR sort gate): high polyreactivity

QVQLVESGGGLVQAGGSLRLSCAASGCTFLYYMGWYRQAPGKERELVSALTFSGGSTYYADSVKGRFTISRDNAKNTVYLQMNSLKPEDTAVDDGAAGWYDWPKYLLSVYTYYLYDYWGQGSQVTVSS
polyreactivity (PSR sort gate): low polyreactivity

QVQLVESGGGLVQAGGSLRLSCAASGDTFTSYAMGWYRQAPGKERELVAAISRRGGSTYYADSVKGRFTISRDNAKNTVYLQMNSLKPEDTAVYYCAAKSYSYTEFDYWGQGTQVTVSS
polyreactivity (PSR sort gate): high polyreactivity

QVQLVESGGGLVQAGGSLRLSCAASGFAFGVYAMGWDRQAAGKERELVAAITRSGGSTYYADSVKGRFTISRDNAKNTVYLQMNSLKPEDTAVYYCAARARDHYGYWGQGTQVTVSS
polyreactivity (PSR sort gate): high polyreactivity

QVQLVESGGGLVQAGGSLRLSCAASGFDGYAMGWYRQAPGKERELVAAISWSGSRTYYADSVKGRFTISRDNAKNTVYLQMNSLKPEDTAVYYCAADDVGRGSTPYDYWGQGTQVTVSW
polyreactivity (PSR sort gate): high polyreactivity

QVQLVESGGGLVQAGGSLRLSCAASGFICDYNAMGWYRQAPGKERELVAAISGGGGSTYYADSVKGRFTISRDNAKKTVYLQMNSLKPEDTAVYYCAKRYRGGYWGQGTQVTVSS
polyreactivity (PSR sort gate): high polyreactivity

QVQLVESGGGLVQAGGSLRLSCAASGFICGYNAMGWYRQAPGKERELVASINWSGGRTYYADSVKGRFTISRDNAKITVYLQMNSLKPEHTAVYYCNADGSRRYNYWGQGTQVTVSS
polyreactivity (PSR sort gate): low polyreactivity

QVQLVESGGGLVQAGGSLRLSCAASGFIFAASALGWSRQAAGKEREFVAAISNSGTSTYYADSVKGRFTISRDNAKNTVYLQMNSLKPEDTAVYYCAAPWSTAYDYWGQGTQVTVSS
polyreactivity (PSR sort gate): high polyreactivity

QVQLVESGGGLVQAGGSLRLSCAASGFIFAAYAKGWYRQAPGKERELVAAISGSGGRTYYADSVKGRFTISRDNAKYTVYLQMNSLKPEDTAVYYCGTPPGYPPGSIIWSRFGFWGQGTQVTVSS
polyreactivity (PSR sort gate): high polyreactivity

QVQLVESGGGLVQAGGSLRLSCAASGFIFADYTMGWYRQPPGKERELVAAITRSGDSTYYADSVKGRFTISRDNAKNTVYLQMNSLKPEDTAVYYCNAVNDWYYAYYGVTSFRSYDYWGQGTQVTVSS
polyreactivity (PSR sort gate): low polyreactivity

QVQLVESGGGLVQAGGSLRLSCAASGFIFAGYAMGWYRQAPGKERELVAAISWDGGSTYYADSVKGRFTISRDNAKNTVYLQMNSLKPEDTAVYYCARARYGKYGYWGQATQVTVSS
polyreactivity (PSR sort gate): low polyreactivity

QVQLVESGGGLVQAGGSLRLSCAASGFIFAIYAMGWYRQAPGKERELVAAINSDGSTYYADSVKGRFTISRDNAKNTVYLQMNSLKPEDTAVYYCNAETAGHDMDYWGQGTQVTVSS
polyreactivity (PSR sort gate): low polyreactivity

QVQLVESGGGLVQAGGSLRLSCAASGFIFAIYAMGWYRQAPGKERELVAAITSSSSTYADSVKGRFTISRDNAKNTVYLQMNSLKPEDTAVYYCAADTYSYRNSNDYWGQGTQVTVSS
polyreactivity (PSR sort gate): low polyreactivity

QVQLVESGGGLVQAGGSLRLSCAASGFIFANNAMGWYRQAPGKEREWVAAITSRGGGTYYADSVKGRFTISRDNAKNTVYLQMNCLKPEDTAVYYCAVRTYRFRHWPKYDYWGQGNQVTVSS
polyreactivity (PSR sort gate): high polyreactivity

QVQLVESGGGLVQAGGSLRLSCAASGFIFANYAMGWYRQAPGKERELVAAISSGRITYYADSVKGRFTISRDNAKNTVYLQMNSLKPEDTAVYYCAADVLYQDRSGEYHHWDGDYWGQGTQVTVSS
polyreactivity (PSR sort gate): low polyreactivity

QVQLVESGGGLVQAGGSLRLSCAASGFIFAPNAMGWYRQAPGKERELVAAISHSGASTFYADSVKGRFTISRDNAKNTVYLQMNILKPEDTAVYYCAADLYIYYVWIRDYWGHGTQVTVSS
polyreactivity (PSR sort gate): low polyreactivity

QVQLVESGGGLVQAGGSLRLSCAASGFIFAPNAMGWYRQAPGKERELVAAISHSGASTFYADSVKGRFTISRDYAKNTVYLQMNSLKPEDTAVYYCGAPPYYSYDYWRQGTQVTVSS
polyreactivity (PSR sort gate): low polyreactivity

QVQLVESGGGLVQAGGSLRLSCAASGFIFARYAMGWYRQAPGKVRELVARITTGDSTYYADSVKGRFTISRDNAKNTVYLQMNSLKPEDTAVYYCAADDNVSVVGLYYWGQGTQVTVSS
polyreactivity (PSR sort gate): low polyreactivity

QVQLVESGGGLVQAGGSLRLSCAASGFIFASNAMGWYRQAPGKERELVAGITKSGGSTYYADSVKGRFTISRDNAKNTVYLQMNSLKPEDTAVYYCAKVSYARAKSSGFYYWGQGTQVTVSS
polyreactivity (PSR sort gate): high polyreactivity

QVQLVESGGGLVQAGGSLRLSCAASGFIFASNAMGWYTQAPGKERELVASITIGDSTYYADSVKGRFTISRDNAKNTVYLQMNSLKPEDTAVYYCAAVKTVDVGYDYWGQGTQVTVSS
polyreactivity (PSR sort gate): low polyreactivity

QVQLVESGGGLVQAGGSLRLSCAASGFIFASYAMGWYRQAPGKERELVAAISSSGGRTYYADSVKGRFTISRDNAKNTVYLQMNSLKPEDTAVYYCAADWRVTYDYWGQGTQVTVSS
polyreactivity (PSR sort gate): high polyreactivity

QVQLVESGGGLVQAGGSLRLSCAASGFIFASYAMGWYRQAPGKERELVATITRNGGITYYADSVKGRFTISRDNAKNTVYLQMNSLKPEDTAVYYCAKRRSGKSNVSFYPYAYDYWGQGTQVTVSS
polyreactivity (PSR sort gate): low polyreactivity

QVQLVESGGGLVQAGGSLRLSCAASGFIFATNTMGWYRQAPGKERELVAASSTYYADSVKGRFTISRDNAKNTVYLQMNSLKPEDTAVYYCNADRDSYIGFDLSESDYWGQGTQVTVSS
polyreactivity (PSR sort gate): low polyreactivity

QVQLVESGGGLVQAGGSLRLSCAASGFIFATYAMGWYRQAPGKERELVASINWSGGRTYYADSVKGRFTISRDNAKNTVYFQMNSLKPEDTEVYYCAARISTRYEYWGHGTQVTVSS
polyreactivity (PSR sort gate): high polyreactivity

QVQLVESGGGLVQAGGSLRLSCAASGFIFATYNMGWYRQAPGKERELVAAITWRGGSTYYADSVKGRFTISRDNAKITVYLQMNSLKPEDTAVYYCAAQDVYSYRYVEDDYWGQGTQVTVSS
polyreactivity (PSR sort gate): low polyreactivity

QVQLVESGGGLVQAGGSLRLSCAASGFIFAWYAMGWYRQAPGKERELVAAITSSGTSTYYADSVKGRFTISRDNAKNTVYLQMNSLTPEDTAVYYCAAVTKRYLAYDYWGQGTQVTVSS
polyreactivity (PSR sort gate): high polyreactivity

QVQLVESGGGLVQAGGSLRLSCAASGFIFAYYAMGWYRQAPGKERELVAAISSRGGTYYADSVKGRFTISRDNAKNTVYFQMNSLKPEDTAVYYCAAASYTWVSRGYEYWGQGTQVTVSS
polyreactivity (PSR sort gate): high polyreactivity

QVQLVESGGGLVQAGGSLRLSCAASGFIFDDNAMGWYRQAPGKERELVAAITSGGGTTYYADSVKGRFTISRDTAKNTVYLQMNSLKPEDTAVYYCNAVPSQHDEFDYWGQGTQVTVSS
polyreactivity (PSR sort gate): low polyreactivity

QVQLVESGGGLVQAGGSLRLSCAASGFIFDKNAMGWYRQAPGKERELVATITSGGSTYYADSVKGRFTISRDNAKNTVYFQMNSLKPDETAVYYCAALDYGYRWYRYYYWGQGTQVTVSS
polyreactivity (PSR sort gate): high polyreactivity

QVQLVESGGGLVQAGGSLRLSCAASGFIFDLYAMGWYRQAPGKERELVAVISYDGGSTYYADSVKGRFTISRDNAKNTVYLQMNSLNPEDTAVYYCNTYAGLVSPSDLYDYWGQGTQVTVSS
polyreactivity (PSR sort gate): low polyreactivity

QVQLVESGGGLVQAGGSLRLSCAASGFIFDQNAMGCYRQAPGKEREFVAAISSRGSRTYYADSVKGRFTISRDKAKNTVYLQMNSLKPEDTAVYDCAAGYWARLYDYDYWGQGTQVTVSS
polyreactivity (PSR sort gate): high polyreactivity

QVQLVESGGGLVQAGGSLRLSCAASGFIFDRYAMGWYRQAPGKERELVAAIDTASSTNYADSVKGRFTISRDNAKNTVDLQMNSLKPEDTAVYYCNASGYYYVIYWKVSNYNYWGQGTQVTVSS
polyreactivity (PSR sort gate): low polyreactivity

QVQLVESGGGLVQAGGSLRLSCAASGFIFDRYDMGWYRQAPGKERELVAAISYSGGSTYYADSVKGRFSISRDNAKNTVYFQMNSLKPEDTAVYYCATRVGYFYYEYSYDYWGQGTQVTVSS
polyreactivity (PSR sort gate): low polyreactivity

QVQLVESGGGLVQAGGSLRLSCAASGFIFDSYAMGWNRQAPGKERELVAAIDKRGGRTYYADSVKGRFTISRDNGKNTVYLQMNSLKPEDTAVYYCAADDYTGYGYWGQGTQVTVSS
polyreactivity (PSR sort gate): high polyreactivity

QVQLVESGGGLVQAGGSLRLSCAASGFIFDSYVMGWYRQAPGKEREMVAAISSGGASTYYADSVKGRFTISRDNAKNTVYLQMNSLKPEDTAVYYCAAEYLYQPWGVDYDYWGQGSQVTVSS
polyreactivity (PSR sort gate): high polyreactivity

QVQLVESGGGLVQAGGSLRLSCAASGFIFDTYALGWYRQAPGKERELVAVMSSSGGRTYYADSVKGRFTISRDNAKNTVYLQMNSLKPEDNAVYYCAARWYSGYGRFDYWGQGTQVTVSS
polyreactivity (PSR sort gate): high polyreactivity

QVQLVESGGGLVQAGGSLRLSCAASGFIFDTYAMGWYRQAPGKERDLVAVISSGGSTYYADSVKGRVTISRDNAKNTVYLQMNSLKPEDTAVYYCAADSGYLGIYGDDYSWGQGTQVSVSS
polyreactivity (PSR sort gate): low polyreactivity

QVQLVESGGGLVQAGGSLRLSCAASGFIFDWYAMGWYRQAPGKERELVAAISYSGGSTYYADSVKGRFTISRDNAKNTVYLQMNSLKPEDTAVYYCNADIWYGDMDYWGQGTQVTVSS
polyreactivity (PSR sort gate): high polyreactivity

QVQLVESGGGLVQAGGSLRLSCAASGFIFDYYAMGWYRQAPGKERELVAAITSRGGSTYYADSVKGRFTISRDNAKNTVYLQMNSLKPEDTAVYYCNKDPHYYATGRFYYWGQGTQVTVSS
polyreactivity (PSR sort gate): high polyreactivity

QVQLVESGGGLVQAGGSLRLSCAASGFIFDYYAMGWYRQAPGKERELVASISGDDGRTYYADSVKGRFTISRDNAKNTVYLQMNSLKPEDTAVYYCNAEWGVLNYDYWGQGTQVTVSS
polyreactivity (PSR sort gate): low polyreactivity

From the nanobody polyreactivity screen of Harvey et al. (2022)
